Results reported in patent publication US20260201030A1 (EVOPOINT BIOSCIENCES, published 2026).
Substitutions are numbered along the chain they refer to. Like-named read-outs stand apart in the source and are kept apart here.

B1: 25C7A5-HZ2 (antibody, human IgG1, kappa)
heavy: not shown
light: EIVLTQSPATLSLSPGERATLSCKASENVKTYVSWYQQKPGQSPRLLIYEASNRYTGVPARFSGSGSATDFTLTISSLEPEDFAVYFCGQTYSFPPTFGQGTKVEIKRTVAAPSVFIFPPSDEQLKSGTASVVCLLNNFYPREAKVQWKVDNALQSGNSQESVTEQDSKDSTYSLSSTLTLSKADYEKHKVYACEVTHQGLSSPVTKSFNRGEC
notes: Humanized IgG1/kappa
B2: 8H11A10 (antibody, V domains shown)
VH: QVQLKESGPVLVAPSQSLSITCTVSGFSLTNYGVHWVRQPPGKGLEWLGVIWSGGRTNYNSALMSRLSISKDNSKSQVFLKMNSLQTDDTAMYYCAKRDGIYGDYWGQGTSVTVSS
VL: DIVETQSPSSLTVTAGEKVTMSCKSSQSLLNSGNQKNYLTWYQQKPGQSPKLLIYWASTRESGVPDRFTGSGFGTDFTLTISSVQAEDLAVYYCQNDYIYPLTFGAGTKLELK
notes: Murine monoclonal antibody
B3: 23F2F2 (antibody, V domains shown)
VH: QVQLKESGGGLVQPGGSMKLSCAASGFTFSDAWMNWVRQSPEKGLEWVAEIRNKADYHATHYVESVTGRFTISRDDSKSSVYLQMNRLRAEDTGIYYCTRNYGSRFDYWGQGTTLTVSS
VL: B2 VL with K36R, Q48H, S49P, F73S, I81V, S82T, I99F, T103A, A106T
notes: Murine monoclonal antibody purified from hybridoma supernatant
B4: 40G11H2 (antibody, V domains shown)
VH: EVQLQQSGAELARPGASVKLSCKASGYTFTSYGIRWVKQRTGQGLEWIGEIYPRGGNTYYDEKFKGKATLTADKSSSTAYMGLRSLTSEDSAVYFCARADYGNSFAYWGQGTLVTVSA
VL: DIVMTQSPSSLTVTAREKVTMSCKSSQSLLNSGNQKNYLTWYHQKPGQPPKLLIYWASTRESGVPDRFTGSGSGTDFTLTISSVQAEDLAVYFCQNAYFYPFTFGTGTKLEIK
notes: Murine monoclonal antibody
B5: 2D3A11 (antibody, V domains shown)
VH: EVQLQQSGPELVKPGASVRMSCKASGYTFTSYVVHWVKQKPGQGLEWIGYINPYNADSKYNERFKGKATLTSDKSSNSAYMELSSLTSEDSAVYYCSRSYYGNSFDVWGAGTTVTVSS
VL: DIVMTQSPSSLTVTTGEKVTMSCKSSQSLLNSGNQKNYLTWYQQKPGQSPKLLFFWASTRQSGVPDRFTGSGSGTYFTLTISSVQAEDLAVYYCQNDYYFPFTFGTGTKLEIK
notes: as for B3
B6: 1A6G10 (antibody, V domains shown)
VH: QVQLKESGGGLVKPGGSLKLSCAASGFTFSSYAMSWVRQTPEKRLEWVAAIHSNGGSTYNSDTMRDRFTISRDHAKNTLYLQMSSLRSEDTALYYCGRQSFGNALDYWGQGTSVTVSS
VL: DIQMTQSPSSLTVTAGEKVTLTCKSSQSLLNSGNQKNYLTWYQQKPGQPPKLLIYWASTRESGVPDRFTGSGSGTFFTLTISSVQAEDLAVYFCQNDYVYPFTFGAGTQLELK
notes: Murine monoclonal antibody purified from hybridoma supernatant; also called 1A6G11
B7: 25C7A5 (antibody, V domains shown)
VH: EVQLQQPGAELVKPGTSVKLSCKASGYTFTNYWLHWVRQRPGQGLEWIGMMHPISGSSNNNERFKSKATLTVDKSSTTAYMQLSRMTSEDSAVYYCARGLLSAMDYWGQGTSVTVSS
VL: CIVLTQSPKSMSMSVGERVTLSCKASENVKTYVSWYQQRPEQSPKLLIYEASNRYTGVPDRFTGSGSATVFTLTISSVQTEDLANYFCGQTYSFPPTFGSGTKLEIK
notes: as for B3
B8: 32F7A6 (antibody, V domains shown)
VH: QIQLVQSGPELRKPGETVKISCKASGYTFTAYTMGWVKQAPGKGLEWMAWINTYSGVPTYAADFKGRFAFSLETSASTAYLLINNLKNEDTATYFCARGVRGNSMDYWGQGTSVTVSS
VL: DIVETQSPSSLTVTVGERVTLSCKSSQSLLNSGNQRNYLTWSQQKPGQPPKLLIYWASTRESGVPNRFTGGGSGTYFTLTISSVQVEDLAVYYCQNTYSFPFTFGTGTKLEIK
notes: as for B3

Legend:
human Claudin18.2 [1] = target: T1, human Claudin18.2 (human, UniProt P56856-2 1-261); assay: cell-based or functional assay
human Claudin18.2 [2] = target: T1, human Claudin18.2; assay: cell-based ELISA on NUGC4 cells (endogenous human Claudin18.2)
human Claudin18.2 [3] = target: T1, human Claudin18.2; assay: cell-based ELISA (OD450) on NUGC4 cells (endogenous human Claudin18.2)
human Claudin18.1 [4] = target: T2, human Claudin18.1 (human, UniProt P56856 1-261); assay: FACS on HEK293T-Claudin18.1 (human) cells, antibody 50 µg/mL
T2 construct: whole, on cells; also called CLDN18.1; HEK293T-Claudin18.1 (human)
Experimental: The specificity of the anti-human Claudin18.2 humanized monoclonal antibodies was determined by flow cytometry (FACS). The experimental procedures were as follows: HEK293T-Claudin18.1 (human) cells were digested, collected by centrifugation, washed three times with pre-cooled PBS, resuspended in 1% BSA (in PBS), and added to a 96-well pointed bottom plate at 3×10⁵ cells/well. Each test antibody with a final concentration of 50 μg/mL was added, and the mixture was incubated at 4° C. for 1 h. The cells were washed three times with pre-cooled PBS, and then 1 μL of a fluorescent secondary antibody (APC: Biolegend-410712 or PE: BioLegend-410708) was added to each well. The mixture was incubated at 4° C. for 0.5 h, and the cells were washed three times with pre-cooled PBS, then resuspended, and assayed on a flow cytometer. For reference, anti-human Claudin18.1 positive control antibodies (positive control antibody-1 and positive control antibody-2) were included in the experiment.

human Claudin18.2 [5] = target: T1, human Claudin18.2; assay: cell-based ELISA on L929-Claudin18.2 (human) cells
human Claudin18.2 [6] = target: T1, human Claudin18.2; assay: cell-based ELISA on HEK293T-Claudin18.2 (human) cells
Experimental: The affinity of the anti-human Claudin18.2 murine monoclonal antibodies was evaluated by cell-based ELISA. The experimental procedures were as follows: The day before the experiment, HEK293T-Claudin18.2 (human) cells were plated in a 96-well plate at 5×10⁴ cells/well. On the day of the experiment, the supernatant was removed, the cells in each well were washed once with 300 μL of PBS, and 100 μL of 4% paraformaldehyde was added to each well for fixation at room temperature for 20 min. Paraformaldehyde was then removed, and the cells in each well were washed twice with 300 μL of PBS. 100 μL of 2% BSA (in PBS) was added to each well, and the mixture was blocked at 37° C. for 2 h. After removing the blocking solution, each antibody subjected to gradient dilution (diluted with 2% BSA (in PBS), starting at […], in a 3-fold gradient, for a total of 11 concentration points) was added to the plate at 100 μL/well, and the mixture was incubated at 37° C. for 2 h. The supernatant was removed, and the cells in each well were washed three times with 300 μL of PBST. […] The reaction was stopped by adding 50 μL of 2 N HCl to each well, and OD_{450 nm} values were read on a microplate reader (manufacturer: MD, model: SpectraMax). […]
The affinity of the anti-human Claudin18.2 humanized monoclonal antibodies was determined by cell-based ELISA. […]

human Claudin18.2 [7] = target: T1, human Claudin18.2; assay: FACS on HEK293T-Claudin18.2 (human) cells
Experimental: The affinity of the anti-human Claudin18.2 humanized antibodies was detected by flow cytometry. The experimental procedures were as follows: The adherent cultured HEK293T-Claudin18.2 (human), NUGC4-Claudin18.2 (human) and NUGC4 cells were digested, collected by centrifugation, and washed three times with pre-cooled PBS. The cells were resuspended in 1% BSA (in PBS) and added to a 96-well pointed bottom plate at 3×10⁵ cells/well, with a volume of 50 μL per well. Each test antibody was diluted with 1% BSA (in PBS) (starting at 100 μg/mL, diluted in a 3-fold gradient, for 10 concentration points). The test antibody subjected to gradient dilution was added to the cells at 50 μL/well, and the mixture was well mixed and incubated at 4° C. for 1 h. The cells were collected by centrifugation, washed three times with pre-cooled PBS, and resuspended in 50 μL of 1% BSA (in PBS). 1 μL of a fluorescent secondary antibody (Biolegend-410712) was added to each well, and the mixture was well mixed and incubated at 4° C. for 0.5 h. The cells were collected by centrifugation, washed three times with pre-cooled PBS, resuspended in 200 μL of PBS, and assayed on a machine.

human Claudin18.2 [8] = target: T1, human Claudin18.2; assay: cell-based ELISA on fixed HEK293T-Claudin18.2 (human) cells
Experimental: The affinity of the anti-human Claudin18.2 murine monoclonal antibodies was evaluated by cell-based ELISA. The experimental procedures were as follows: The day before the experiment, HEK293T-Claudin18.2 (human) cells were plated in a 96-well plate at 5×10⁴ cells/well. On the day of the experiment, the supernatant was removed, the cells in each well were washed once with 300 μL of PBS, and 100 μL of 4% paraformaldehyde was added to each well for fixation at room temperature for 20 min. Paraformaldehyde was then removed, and the cells in each well were washed twice with 300 μL of PBS. 100 μL of 2% BSA (in PBS) was added to each well, and the mixture was blocked at 37° C. for 2 h. After removing the blocking solution, each antibody subjected to gradient dilution (diluted with 2% BSA (in PBS), starting at […], in a 3-fold gradient, for a total of 11 concentration points) was added to the plate at 100 μL/well, and the mixture was incubated at 37° C. for 2 h. The supernatant was removed, and the cells in each well were washed three times with 300 μL of PBST. 100 μL of an anti-mouse IgG HRP secondary antibody (Jackson, cat #115-035-003) in 2% BSA was added to each well, and the mixture was incubated at 37° C. for 1 h. The secondary antibody was then removed, and the cells in each well were washed five times with 300 μL of PBST, followed by the addition of 100 μL of a TMB substrate (Huzhou InnoReagents Co., Ltd.) per well for color development for 5-20 min. The reaction was stopped by adding 50 μL of 2 N HCl to each well, and OD_{450 nm} values were read on a microplate reader (manufacturer: MD, model: SpectraMax). The values obtained were plotted by GraphPad Prism to calculate the EC₅₀ value.

human Claudin18.1 [9] = target: T2, human Claudin18.1; assay: FACS on HEK293T-Claudin18.1 (human) cells
human Claudin18.1 [10] = target: T2, human Claudin18.1; assay: FACS on HEK293T-Claudin18.1 (human) cells, antibody 50 µg/mL; remark: listed apart in the source
Experimental: The specificity of the anti-human Claudin18.2 murine monoclonal antibodies was evaluated by flow cytometry (FACS). The experimental procedures were as follows: The adherent cultured HEK293T-Claudin18.1 (human) cells were digested, collected by centrifugation, and washed three times with pre-cooled PBS. The cells were resuspended in 1% BSA (in PBS) and added to a 96-well pointed bottom plate at 3×10⁵ cells/well, with a volume of 50 μL per well. Each test antibody was diluted to 100 μg/mL with […] (in PBS) and added to the cells at 50 μL/well to achieve a final antibody concentration of 50 μg/mL. The mixture was well mixed and incubated at 4° C. for 1 h. The cells were collected by centrifugation, washed three times with pre-cooled PBS, and resuspended in 50 μL of 1% BSA (in PBS). 1 μL of a fluorescent secondary antibody (Biolegend, cat #405308) was added to each well, and the mixture was well mixed and incubated at 4° C. for 0.5 h. The cells were collected by centrifugation, washed three times with pre-cooled PBS, resuspended in 200 μL of PBS, and assayed on a machine (flow cytometer model: Sony-LE-SA3800GA). The APC fluorescence signal value was obtained, and the gate was set using an isotype control antibody as a negative control to obtain the percentage of positively stained cells (positive rate (0%)).

Binder | EC50 (human Claudin18.2 [8]) [µg/mL] | binding result (human Claudin18.1 [9]) | Mean APC fluorescence signal value (human Claudin18.1 [10]) | Positive rate (%) (human Claudin18.1 [10]) | other results
B1 | – | – | – | – | ADCC activity EC50 (Jurkat-NFAT-CD16a luciferase reporter, HEK293T-Claudin18.2 (human) target cells) (human Claudin18.2 [1]): 0.0488 µg/mL; CDC activity EC50 (guinea pig serum killing, CCK8, HEK293T-Claudin18.2 (human) cells) (human Claudin18.2 [1]): 3.28 µg/mL; EC50 (human Claudin18.2 [2]): 0.122 µg/mL; Maximum signal value (human Claudin18.2 [3]): 0.313; Positive rate (%) (human Claudin18.1 [4]): 0.55%; EC50 (human Claudin18.2 [5]): 0.0148 µg/mL; EC50 (human Claudin18.2 [6]): 0.0112 µg/mL; EC50 (human Claudin18.2 [7]): 0.293 µg/mL; Maximum signal value (human Claudin18.2 [7]): 119000
B2 | 0.0123 | no binding (tested: 50 µg/mL) | 175 | 1.21 | –
B3 | 0.00602 | no binding (tested: 50 µg/mL) | 222 | 2.16 | –
B4 | 0.00738 | no binding (tested: 50 µg/mL) | 160 | 0.98 | –
B5 | 0.00814 | no binding (tested: 50 µg/mL) | 134 | 0.25 | –
B6 | 0.00502 | no binding (tested: 50 µg/mL) | 111 | 0.16 | –
B7 | 0.0105 | no binding (tested: 50 µg/mL) | 123 | 0.87 | –
B8 | 0.0024 | – | 411 | 0 | –
